Measured values as given in PMC5467207, “Single-peptide DNA-dependent RNA polymerase homologous to multi-subunit RNA polymerase” (Nature Communications, 2017).

B1: YonO (Bacillus subtilis subsp. subtilis str. 168) (protein)
chain: MKGKKDGLNKQVHIYSIDTSAFYNDQENKLHNKILKSYRYRDHLRKLEHVDKKHKKYITQRIISLKEKLYNAFNDHNQIRTLRTDSLKDNNVISLFDSVLTRTLGIKENSLSEEIMVVQTYHFQILRDIIDKGFIHNNEKYVYFTSSAGQIRTKKSCFIKQSTLDKYQNALTCGLSVEHINAQGGSSINKWNSYMALSNSASSSWEIDIDKAIVVNDLETNVSSLVDYIDRDTYEITRKIMDIPIEHTDGCGMMLPSLSQKSFMVRLPWVKGLLVPFDFRKFAEKHSSFIVKDVYGKEWDIIKDDIQIIFTKSQFKMWKYYDSWDDYRYKFKKYGCLGAKLNEEDPSVEGKLTYQMLQTLTDITDEELKQISSKTVSEITQLGTDKETMMKVLGATEKNKHKTSLQEALLIYPELLNDDHTKEIIKNKKKSMIKDAKSGKLLVSDARYTYLCPDLYAFCERLFLGIESPKGLLSGSDVHCSLYDEGYIDILRSPHLFREHGVRWNKKNEEYEKWFITPGVYTSIHDPISKLLQFDNDGDKALIISDELIVNIAKRNMADIVPLYYEMSVAQKQEINSRNIYEALTLAYGINIGEYSNNITKIWNSDNINLDVIKWLCMENNFTIDFAKTLFMPTRPDHVDEKIKDYIKNKVPHFFINAKDKEEHSVESINESTVNKLDSIIPSDRINFAAVAGKFDYRFLLKNKEIKLNEAVINEYKRLDRNKKWLMNDEEAKPGQKLYVYKIIKQKLLEIHNDDGFITDVLVKHLYKKKSKYKSTLWECFGDIVLENIKHNLKTFKGCCICGKAFKPTSNKAKYCQSCGKKKERDKYKKYNKKRINHR
notes: N-terminal 6xHis-tag, pET-28a, expressed in E. coli T7 Express; single chain, ~100 kDa

What was measured:
[1] = system: T1, Nc1nc2c(ncn2[C@@H]2O[C@H](COP(=O)(O)OP(=O)(O)OP(=O)(O)O)[C@@H](O)[C@H]2O)c(=O)[nH]1; assay: misincorporation in assembled elongation complexes, Urea-PAGE, Michaelis-Menten fit; format: biochemical, Escherichia coli; settings: misincorporation (non-cognate NTP for the template base), assembled elongation complex, pH 8.5, MgCl2
T1 construct: core enzyme without sigma, ~400 kDa five-subunit core (2α, β, β′, ω); 6xHis tag on the RNAP; with DNA-directed RNA polymerase subunit alpha; DNA-directed RNA polymerase subunit omega

[2] = substrate: Nc1nc2c(ncn2[C@@H]2O[C@H](COP(=O)(O)OP(=O)(O)OP(=O)(O)O)[C@@H](O)[C@H]2O)c(=O)[nH]1; assay: as above; format: biochemical, Bacillus subtilis; settings: misincorporation (non-cognate NTP for the template base), assembled elongation complex, pH 8.5, MgCl2
[3] = substrate: Nc1ncnc2c1ncn2[C@@H]1O[C@H](COP(=O)(O)OP(=O)(O)OP(=O)(O)O)[C@@H](O)[C@H]1O; assay: RNA extension in assembled elongation complexes, Urea-PAGE, Michaelis-Menten fit; format: biochemical, Bacillus subtilis; settings: 10 °C, assembled elongation complex (template DNA, RNA primer), 20 mM Tris-HCl pH 8.5, 40 mM KCl, 10 mM MgCl2

Molecule	Km [1]	Km [2]	Km [3]
E. coli core msRNAP (Escherichia coli K-12)	458 ± 23 µM		
B1		126 ± 41 µM	1.8 ± 0.7 µM
